In general, stoichiometry N refers to the number of molecules, sites or subunits per partner or assembly.

The experiment has as its target human SLC15A4 of the SLC15A4/ALFA_Nanobody/C5 complex (cryo-EM sample) (human) (UniProt Q8N697). Briefly: cryo-EM structure; purified SLC15A4/ALFA_Nanobody/C5 complex, 10 µM C5 in all buffers and 100 µM added to peak SEC fractions, 15 mg/ml; 2D averages showed dimeric and monomeric forms; the dimer resolved at 2.50 Å.

With “human SLC15A4 of the SLC15A4/ALFA_Nanobody/C5 complex (cryo-EM sample) (from UniProt Q8N697 1-577) (natural protein)”, the stoichiometry N was found to be 2.

For the origin of these results see PMC10589233.
